The chains are these.
T1: RsmQ (Pseudomonas fluorescens SBW25 plasmid …, UniProt UPI00015066B5 1-62)
T1 sequence: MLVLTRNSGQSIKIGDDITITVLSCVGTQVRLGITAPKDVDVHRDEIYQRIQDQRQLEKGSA

The subject of the first data set is RsmQ R44A (Pseudomonas fluorescens SBW25 plasmid pQBR103). Nature of the data set: SPR. The settings on record: 100 nM protein; listed as None 2; SPR (ReDCaT SA chip, Biacore 8K): 10 mM HEPES, 150 mM NaCl, 3 mM EDTA, 0.05% Tween 20, pH 7.4, 20 C; RsmQ 100 and 1000 nM (Fig 4: 100-1000 nM). On the technique in general: In SPR one partner is held on a chip, and binding of the other changes the refractive index at the surface.
Turning to “CCGCGCACCCAGCGCAAACCCTACCCTACGTCCTCCTGC [NoBind_HP_2]”, the binding signal was -1.89 %Rmax.

A further data set relates to RsmQ H43A (Pseudomonas fluorescens SBW25 plasmid pQBR103). Nature of the data set: SPR. Particulars: 100 nM protein; listed as None 2; SPR (ReDCaT SA chip, Biacore 8K): 10 mM HEPES, 150 mM NaCl, 3 mM EDTA, 0.05% Tween 20, pH 7.4, 20 C; RsmQ 100 and 1000 nM (Fig 4: 100-1000 nM).
For “CCGCGCACCCAGCGCAAACCCTACCCTACGTCCTCCTGC [NoBind_HP_2]”, the binding signal was -2.51 %Rmax.

The test system of a further data set is RsmQ (Pseudomonas fluorescens SBW25 plasmid pQBR103). Kind of data set: SPR. Particulars: 100 nM protein; mean of 0.445 and 0.102; listed as None 2; SPR (ReDCaT SA chip, Biacore 8K): 10 mM HEPES, 150 mM NaCl, 3 mM EDTA, 0.05% Tween 20, pH 7.4, 20 C; RsmQ 100 and 1000 nM (Fig 4: 100-1000 nM).
“CCGCGCACCCAGCGCAAACCCTACCCTACGTCCTCCTGC [NoBind_HP_2]”: the binding signal is 0.27 %Rmax.

Still in this data set, the particulars now being: 100 nM protein; mean of 102.98 and 94.19; SPR (ReDCaT SA chip, Biacore 8K): 10 mM HEPES, 150 mM NaCl, 3 mM EDTA, 0.05% Tween 20, pH 7.4, 20 C; RsmQ 100 and 1000 nM (Fig 4: 100-1000 nM).
Consider “CCGCGCAGGAAGCGCAAACCCTACCCTACGTCCTCCTGC [Bind_HP (GGA hairpin)]”, for which the binding signal is 98.6 %Rmax.

Staying with this data set, now noted: SPR (ReDCaT SA chip, Biacore 8K): 10 mM HEPES, 150 mM NaCl, 3 mM EDTA, 0.05% Tween 20, pH 7.4, 20 C; RsmQ 100 and 1000 nM (Fig 4: 100-1000 nM).
“ACTCAACCAGGAATAAGGAATACAAGAAACCTACCCTACGTCCTCCTGC [PFLU0296]”: the binding signal was < 50 %Rmax. Same read-out and setting: to “TTCTAATCGCCTAAGGAGCATTGAGATGTCCTACCCTACGTCCTCCTGC [PFLU4548]” belongs < 50 %Rmax. On the same count and under the same terms, to “TCATTACCCTGCAGGGACCAAATCAACTGCCTACCCTACGTCCTCCTGC [PFLU5860]” belongs < 50 %Rmax. Still for that read-out and setting: the figure for “CACCAACCCTGCACGTGGAGAGAACAACACCTACCCTACGTCCTCCTGC [PFLU5567]” is < 50 %Rmax; for “AAGACCAGATCCAGGGATATGACGACGCACCTACCCTACGTCCTCCTGC [PFLU5652]” it is < 50 %Rmax. Consider “GACATTAATCATATGGAGACACCCTCATGCCTACCCTACGTCCTCCTGC [PFLU4688]”, for which the binding signal was < 50 %Rmax. On the same count and under the same terms, the figure for “AGTCCTTTAGGCAAGGAGTTAATTGTCGTCCTACCCTACGTCCTCCTGC [PFLU5529]” is < 50 %Rmax; for “TATAAGACTCGTACCCCGGAGCGCTCTCGCCTACCCTACGTCCTCCTGC [PFLU4968]” it is < 50 %Rmax. The same measure, in the same setting: the figure for “GAAACATTCCGAACGGAGAAAAAACTGGCCCTACCCTACGTCCTCCTGC [PFLU2486]” is < 50 %Rmax; for “CGCCCGTGATCCCATGGAAACTCGAAGACTCCTACCCTACGTCCTCCTGC [PFLU0998]” it is < 50 %Rmax; for “CGCATCATTTACATGGAAGCGAGTAATCACCTACCCTACGTCCTCCTGC [PFLU3467]” it is < 50 %Rmax.

For the molecule “TCTGTAATGACCACGGAAAAAGTGAAGTACCTACCCTACGTCCTCCTGC [PFLU4891]”, the binding signal is < 50 %Rmax. On the same count and under the same terms, to “AACGGTTCAAATATTCAGAGGATCCAGCTCCTACCCTACGTCCTCCTGC [PFLU6118]” belongs < 50 %Rmax; to “GTGAGGACTTTAATGGACGACAACAAGAACCTACCCTACGTCCTCCTGC [PFLU1189]”, < 50 %Rmax; to “TGCCCCCTTCAGATGGAGTTTCCCCCCGCCCTACCCTACGTCCTCCTGC [PFLU5986]”, < 50 %Rmax.

Still in this data set, the particulars now being: mean of 1.178 and 0.729; SPR (ReDCaT SA chip, Biacore 8K): 10 mM HEPES, 150 mM NaCl, 3 mM EDTA, 0.05% Tween 20, pH 7.4, 20 C; RsmQ 100 and 1000 nM (Fig 4: 100-1000 nM).
For the molecule “GGGAAAAAATGTGGGCGGGTCATACCGCCCCTTTTTTTCCTACCCTACGTCCTCCTGC [RsmZ 127-end]”, the binding signal is 0.95 %Rmax.

The same data set, now with this note: up to 1000 nM protein; SPR (ReDCaT SA chip, Biacore 8K): 10 mM HEPES, 150 mM NaCl, 3 mM EDTA, 0.05% Tween 20, pH 7.4, 20 C; RsmQ 100 and 1000 nM (Fig 4: 100-1000 nM).
In the case of “CGCCATTCTTCAAGGGAGAGCCGTGTGGCCCTACCCTACGTCCTCCTGC [PFLU1516]”, the binding signal is > 50 %Rmax.

With “GGAAGTTTTACTAGGGAAGTTGCTATTGCCCTACCCTACGTCCTCCTGC [PFLU4443 (fleQ)]”, the binding signal is > 50 %Rmax. Same read-out and setting: to “GAAGACTTCGGCATGGAAGCGGCGCGAACCCTACCCTACGTCCTCCTGC [PFLU4726]” belongs > 50 %Rmax; to “AACAATAATGCACATGGAGTAGCGTCGATGCCTACCCTACGTCCTCCTGC [PFLU0923]”, > 50 %Rmax.

Still in this data set, the particulars now being: up to 1000 nM protein; highest of the genomic oligos; SPR (ReDCaT SA chip, Biacore 8K): 10 mM HEPES, 150 mM NaCl, 3 mM EDTA, 0.05% Tween 20, pH 7.4, 20 C; RsmQ 100 and 1000 nM (Fig 4: 100-1000 nM).
With “TTATTATTCGCCAGGGACGGCATTCGGGGCCTACCCTACGTCCTCCTGC [PFLU3378]”, the binding signal was > 50 %Rmax.

Another data set concerns the target T1, RsmQ. Kind of data set: SPR (ReDCaT); 500 nM protein; HBS-EP+ (10 mM HEPES, 150 mM NaCl, 3 mM EDTA, 0.05% v/v Tween 20, pH 7.4), 20 C, Biacore 8K, ReDCaT SA chip; high values mean tight binding. Particulars: protein: recombinant; tags: C-terminal TEV site + 6xHis; chain copies: 2.
As to AACGGTTCAAATATTCAGAGGATCCAGCT (ssDNA) [PFLU6118], the binding signal is 21.2 ± 0.215 %Rmax. On the same count and under the same terms, to AACAATAATGCACATGGAGTAGCGTCGATG (ssDNA) [PFLU0923] belongs 76.5 ± 1.26 %Rmax; to CACCAACCCTGCACGTGGAGAGAACAACA (ssDNA) [PFLU5567], 19.8 ± 0.479 %Rmax; to CGCCCGTGATCCCATGGAAACTCGAAGACT (ssDNA) [PFLU0998], 19.2 ± 0.463 %Rmax.

GTGAGGACTTTAATGGACGACAACAAGAA (ssDNA) [PFLU1189]: the binding signal came out at 24.64 ± 0.224 %Rmax. On to CAAAAATATAAATACCCGCGGGTGAAGTC (ssDNA) [PFLU2358], for which the binding signal came to 21.4 ± 0.255 %Rmax. Turning to GAAGACTTCGGCATGGAAGCGGCGCGAAC (ssDNA) [PFLU4726], the binding signal came to 52.22 ± 0.504 %Rmax. On the same count and under the same terms, to TATAAGACTCGTACCCCGGAGCGCTCTCG (ssDNA) [PFLU4968] belongs 17.5 ± 0.242 %Rmax. As for TTCTAATCGCCTAAGGAGCATTGAGATGT (ssDNA) [PFLU4548], the binding signal was 25.35 ± 0.144 %Rmax. Consider TCTGTAATGACCACGGAAAAAGTGAAGTA (ssDNA) [PFLU4891], for which the binding signal is 28.28 ± 0.104 %Rmax. As for CGCCATTCTTCAAGGGAGAGCCGTGTGGC (ssDNA) [PFLU1516], the binding signal is 63.68 ± 0.594 %Rmax. Consider TGCCCCCTTCAGATGGAGTTTCCCCCCGC (ssDNA) [PFLU5986], for which the binding signal turned out to be 23.9 ± 0.356 %Rmax. As to CTGCGCTCCCGATCCTGGATTTTCCGGCC (ssDNA) [PFLU5864], the binding signal is 19.55 ± 0.081 %Rmax. The same measure, in the same setting: to TCCAGTTTAGGCTTCTAAGGAGCACACCC (ssDNA) [PFLU4414] belongs 24 ± 0.491 %Rmax; to GACATTAATCATATGGAGACACCCTCATG (ssDNA) [PFLU4688], 18.86 ± 0.102 %Rmax.

As for GAAACATTCCGAACGGAGAAAAAACTGGC (ssDNA) [PFLU2486], the binding signal stood at 19.6 ± 0.424 %Rmax. The same measure, in the same setting: to CCGCGCACGGAAGCGCAAAC (structured_DNA) [Full_Bind_HP (ACGGA hairpin)] belongs 61.28 ± 0.301 %Rmax; to AAGACCAGATCCAGGGATATGACGACGCA (ssDNA) [PFLU5652], 24.3 ± 0.196 %Rmax; to CGCATCATTTACATGGAAGCGAGTAATCA (ssDNA) [PFLU3467], 26.05 ± 0.116 %Rmax. Same read-out and setting: to TTATTATTCGCCAGGGACGGCATTCGGGG (structured_DNA) [PFLU3378] belongs 130.9 ± 0.261 %Rmax; to GGAAGTTTTACTAGGGAAGTTGCTATTGC (ssDNA) [PFLU4443 (fleQ)], 83.36 ± 0.145 %Rmax. Still for that read-out and setting: the figure for AGTCCTTTAGGCAAGGAGTTAATTGTCGT (ssDNA) [PFLU5529] is 41.03 ± 0.156 %Rmax; for GGCCGCCCTCTCCGCTGATGGTCGTCTCG (ssDNA) [PFLU3427] it is 14.53 ± 0.0808 %Rmax; for CCGCGCAGGAAGCGCAAAC (structured_DNA) [Bind_HP (GGA hairpin)] it is 97.319 ± 0.0324 %Rmax. Regarding TCATTACCCTGCAGGGACCAAATCAACTG (ssDNA) [PFLU5860], the binding signal was 23.7 ± 0.45 %Rmax.

Turning to ACTCAACCAGGAATAAGGAATACAAGAAA (ssDNA) [PFLU0296], the binding signal was 29.5 ± 0.904 %Rmax.

Values taken from PMC9928087, “Plasmids manipulate bacterial behaviour through translational regulatory crosstalk”.
